Where a chain is given by its changes, count along the chain named. Numbers in names are those of the source.
B1: CBD1045 (antibody, human IgG1, kappa, L234A L235A, V domains shown)
VH: QVQLVQSGAEVKKPGASVKVSCKASRYTFTDYNLHWVRQAPGQGLEWIGFIYPYNGGTGYAQKFKGRVTITADTSTSTAYMELSSLRSEDTAVYYCARDHRYNEGVSFDYWGQGTLVTVSS
VL: EIVLTQSPGTLSLSPGERATLSCRASESVDGFGNSFMNWYQQKPGQAPRLLIYLASNLESGVPARFSGSGSGTDFTLTISRLEPEDFAVYYCQQNNEDPYTFGQGTKVEIKR
notes: also called h1017-H8/L5 whole antibody hIgG1-LALAPA
B2: CBD1046 (antibody, human IgG1, kappa, L234A L235A, V domains shown)
VH: B1 VH
VL: B1 VL with G72R
notes: also called h1017-H8/L6 whole antibody hIgG1-LALAPA
B3: CBD1048 (antibody, human IgG1, kappa, L234A L235A, V domains shown)
VH: B1 VH with I48M, K65Q, I70L, A72V, T74Y
VL: B1 VL with G72R
notes: also called h1017-H9/L6 whole antibody hIgG1-LALAPA
B4: CBD1041 (antibody, human IgG1, kappa, L234A L235A, V domains shown)
VH: B1 VH with I48M, G59N, K65Q
VL: B1 VL with V62I
notes: also called h1017-H6/L4 whole antibody hIgG1-LALAPA
B5: CBD1047 (antibody, human IgG1, kappa, L234A L235A, V domains shown)
VH: B1 VH with I48M, K65Q, I70L, A72V, T74Y
VL: B1 VL
notes: also called h1017-H9/L5 whole antibody hIgG1-LALAPA
B6: CBD1042 (antibody, human IgG1, kappa, L234A L235A, V domains shown)
VH: B1 VH with K65Q
VL: B1 VL with V62I
notes: also called h1017-H7/L4 whole antibody hIgG1-LALAPA
B7: CBD1044 (antibody, human IgG1, kappa, L234A L235A, V domains shown)
VH: B1 VH with K65Q
VL: B1 VL with G72R
notes: also called h1017-H7/L6 whole antibody hIgG1-LALAPA
B8: CBD1032 (Fab, V domains shown)
VH: B1 VH with I48M, K65Q, I70M, A72R, A79V, L116T
VL: DIQMTQSPSSLSASVGDRVTITCRASESVDGFGNSFMNWYQQKPGKAPKLLIYLASNLESGVPSRFSGSGSGTDFTLTISSLQPEDFATYYCQQNNEDPYTFGQGTKLEIK
notes: also called h1017-H1/L1 F(ab)
B9: CBD1039 (Fab, V domains shown)
VH: B1 VH with V20I, K65Q, V68A, I70L, A72V, T74Y, L116T, V117L
VL: B8 VL with M4L, V19A, L82V
notes: also called h1017-H5/L2 F(ab)
B10: CBD1040 (Fab, V domains shown)
VH: B1 VH with V20I, K65Q, V68A, I70L, A72V, T74Y, L116T, V117L
VL: B8 VL with M4L, V19A, G72R, L82V
notes: also called h1017-H5/L3 F(ab)
B11: CBD1035 (Fab, V domains shown)
VH: B1 VH with V20I, K65Q, V68A, I70L, A72V, L116T, V117L
VL: B8 VL with M4L, V19A, L82V
notes: also called h1017-H3/L2 F(ab)
B12: CBD1036 (Fab, V domains shown)
VH: B1 VH with V20I, K65Q, V68A, I70L, A72V, L116T, V117L
VL: B8 VL with M4L, V19A, G72R, L82V
notes: also called h1017-H3/L3 F(ab)
B13: CBD1037 (Fab, V domains shown)
VH: B1 VH with I48M, K65Q, I70M, A72V, T74Y, L116T
VL: B8 VL with M4L, V19A, L82V
notes: also called h1017-H4/L2 F(ab)
B14: CBD1038 (Fab, V domains shown)
VH: B1 VH with I48M, K65Q, I70M, A72V, T74Y, L116T
VL: B8 VL with M4L, V19A, G72R, L82V
notes: also called h1017-H4/L3 F(ab)
B15: CBD1034 (Fab, V domains shown)
VH: B1 VH with I48M, K65Q, I70M, A72V, L116T
VL: B8 VL with M4L, V19A, G72R, L82V
notes: also called h1017-H2/L3 F(ab)
B16: CBD1033.44 disulfide-engineered F(ab') analog (IgG1, truncated T238) (Fab, V domains shown)
VH: B1 VH with I48M, K65Q, I70M, A72V, L116T
VL: DIQLTQSPSSLSASVGDRATITCRASESVDGFGNSFMNWYQQKPGKAPKLLIYLASNLESGVPSRFSGSGSGTDFTLTISSVQPEDFATYYCQQNNEDPYTFGQGTKLEIKR
notes: also called .44 design
B17: CBD1033.42 disulfide-engineered F(ab') analog (IgG1, truncated P240) (Fab, V domains shown)
VH: B1 VH with I48M, K65Q, I70M, A72V, L116T
VL: B16 VL
notes: also called .42 design
B18: CBD1033.45 disulfide-engineered F(ab') analog (IgG1, truncated T238, C233S) (Fab, V domains shown)
VH: B1 VH with I48M, K65Q, I70M, A72V, L116T
VL: B16 VL
notes: also called .45 design
B19: CBD1445 Fab (VL D30A of CBD1033) (Fab, V domains shown)
VH: B1 VH with I48M, K65Q, I70M, A72V, L116T
VL: B8 VL with M4L, V19A, D30A, L82V
B20: CBD1382 (Fab, V domains shown)
VH: B1 VH with I48M, N55A, K65Q, I70M, A72V, L116T
VL: B8 VL with M4L, V19A, L82V
B21: CBD1622 Fab (VL D30S and VH N55Q of CBD1033) (Fab, V domains shown)
VH: B1 VH with I48M, N55Q, K65Q, I70M, A72V, L116T
VL: B8 VL with M4L, V19A, D30S, L82V
notes: also called D30S and N55Q
B22: CBD1381 (Fab, V domains shown)
VH: B1 VH with I48M, N55Q, K65Q, I70M, A72V, L116T
VL: B8 VL with M4L, V19A, L82V
B23: CBD1623 Fab (VL D30S and VH N55A of CBD1033) (Fab, V domains shown)
VH: B1 VH with I48M, N55A, K65Q, I70M, A72V, L116T
VL: B8 VL with M4L, V19A, D30S, L82V
notes: also called D30S and N55A
B24: CBD1380 (Fab, V domains shown)
VH: B1 VH with I48M, N55S, K65Q, I70M, A72V, L116T
VL: B8 VL with M4L, V19A, L82V
B25: CBD1444 Fab (VL D30S of CBD1033) (Fab, V domains shown)
VH: B1 VH with I48M, K65Q, I70M, A72V, L116T
VL: B8 VL with M4L, V19A, D30S, L82V
B26: CBD1443 Fab (VL D30E of CBD1033) (Fab, V domains shown)
VH: B1 VH with I48M, K65Q, I70M, A72V, L116T
VL: B8 VL with M4L, V19A, D30E, L82V
B27: CDB1017p (Fab, V domains shown)
VH: EVQLQQSGPELVKPGASVKISCKASRYTFTDYNLHWVKLSHEKSLEWIGFIYPYNGGTGYNQKFKNKAKLTVDYSSSTAYMELRSLTSVDAAVYYCARDHRYNEGVSFDYWGQGTTLTVSS
VL: NIVLTQSPASLAVSLGQRATISCRASESVDGFGNSFMNWYQQKPGQSPKLLIYLASNLESGVPARFSGSGSRTDFTLTIDPVEADDAATYYCQQNNEDPYTFGGGTKLEIK
notes: CDB1017p [sic]; also called CBD1017p; mouse CT8 F(ab)

Each binder was assayed against T1, human CD8αα homodimer, recombinant protein (Acro Biosystems) (human, UniProt P01732 22-182) (assay: BLI steady state, whole hIgG1-LALAPA antibody on CD8α-His (Ni-NTA sensor), 30 °C).
T1 construct: also called CD8αα antigen; biotinylated CD8α recombinant protein (CDA-H82E3)
Procedure: To assess affinity of whole antibodies, steady state analysis was used as the bivalent nature of both whole antibody and CD8α complicates kinetic analysis. 50 nM CD8α-His (that is, CD8α with a C-terminal oligohistidine tag; Acro) was immobilized on Ni-NTA sensor probes. Binding was analyzed with a three-fold antibody dilutions series: 60 nM, 20 nM, 6.67 nM, 2.22 nM, 0.74 nM, and 0.25 nM. The antigen-loaded sensors were incubated in the diluted solutions to capture the whole IgG antibody for 300 s to record the association phase. Sensors were incubated in the kinetic buffer for 900 s to record the dissociation phase. The spin speed was 1000 rpm for all steps except the antigen loading step which was 400 rpm to control density of the antigen. The temperature of the performed assays was at 30° C. during the association and dissociation phases. The sensor data were baseline subtracted and further analyzed in GatorOne software (version 2.10) to determine the equilibrium dissociation constants (KD) of the antibodies by fitting the signals of the steady states to the 1:1 binding model.

T1 sequence (P01732 22-182 limits assumed): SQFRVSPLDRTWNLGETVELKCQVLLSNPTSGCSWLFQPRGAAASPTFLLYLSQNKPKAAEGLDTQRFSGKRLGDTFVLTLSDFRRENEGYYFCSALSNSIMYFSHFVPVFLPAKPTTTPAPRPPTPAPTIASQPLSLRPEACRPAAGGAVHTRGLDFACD

| Binder | Kd [nM] |
| --- | --- |
| B1 | 4.18 |
| B2 | 9.78 |
| B3 | 5.45 |
| B4 | 10.2 |
| B5 | 2.72 |
| B6 | 3.59 |
| B7 | 8.65 |

What follows are binders tested against T1, human CD8αα homodimer, recombinant … (assay: BLI kinetics, F(ab) on biotinylated CD8α (SA-XT sensor), 1:1 fit, 37 °C [CONT'ED]).
Procedure: (§1) Biolayer interferometry kinetic assays were performed using a GatorBio Gator Plus BLI system. Kinetic buffer containing PBS plus 0.1% Tween 20 and 0.2% BSA was used for calculating the baseline. To measure the binding kinetics of anti-CD8α antibody fragment (Fab), streptavidin-immobilized SA-XT sensors (#160029, Gator Bio) were prehydrated in the kinetic buffer and loaded with […] biotinylated CD8α recombinant protein (CDA-H82E3, Acro Biosystems) at a spin speed of 400 rpm to a threshold response of 10 nm. The sensors were then incubated in the kinetic buffer for 300 s to acquire a baseline measurement prior to each association. […] The antigen-loaded sensors were incubated in the diluted solutions to capture Fab fragments for 300 s to record the association phase. Sensors were finally incubated in the kinetic buffer for 900 s to record the dissociation phase. The spin speed for all steps except the antigen loading step was 1000 rpm. The temperature of the performed assays was either 30° C. or 37° C. during the association and dissociation phases. Sensor data were baseline subtracted, and global curve fitting of the kinetic data from six different analyte concentrations at a 1:1 monovalent binding model was performed using GatorOne software (version v2.10) to determine kinetic rate constants (kₒₙ and koff) and equilibrium dissociation constants (KD) of the analyzed antibodies.

| Binder | Kd [nM] | koff [s⁻¹] | kon [M⁻¹ s⁻¹] |
| --- | --- | --- | --- |
| B8 | 1.59 | 5.35e-05 | 33700 |
| B9 | 4.59 | 9.27e-05 | 20200 |
| B10 | 7.39 | 0.000103 | 14000 |
| B11 | 8.02 | 9.12e-05 | 11400 |
| B12 | 1.68 | 0.000194 | 117000 |
| B13 | 1.27 | 9.71e-05 | 76800 |
| B14 | 7.42 | 0.00014 | 18900 |
| B15 | 1.82 | 0.000187 | 103000 |

The binders below were run against T1, human CD8αα homodimer, recombinant … (assay: BLI kinetic assay, engineered F(ab') fragment).
Procedure: The global fitting was performed with a 1:1 fitting model using GatorOne software as described below.
as §1

| Binder | Kd [nM] | koff [s⁻¹] | kon [M⁻¹ s⁻¹] |
| --- | --- | --- | --- |
| B16 | 7.23 | 8.88e-05 | 12300 |
| B17 | 5.09 | 6.41e-05 | 12600 |
| B18 | 9.03 | 0.000117 | 13000 |

These binders were tested against T1, human CD8αα homodimer, recombinant … (assay: BLI kinetic rate analysis, Fab fragment (temperature not given)).
Procedure: as §1

| Binder | Kd [nM] | koff [s⁻¹] | kon [M⁻¹ s⁻¹] |
| --- | --- | --- | --- |
| B19 | 15.6 | 0.00048 | 30700 |
| B20 | 0.86 | 6.91e-05 | 80300 |
| B21 | 2.91 | 9.97e-05 | 34300 |
| B22 | 1.22 | 9.59e-05 | 78600 |
| B23 | 0.617 | 7.02e-05 | 114000 |
| B24 | 1.93 | 0.000116 | 59900 |
| B25 | 7.69 | 0.000196 | 25500 |
| B26 | 10 | 0.000284 | 28400 |

Each binder was assayed against T1, human CD8αα homodimer, recombinant … (assay: BLI kinetics, F(ab) on biotinylated CD8α (SA-XT sensor), 1:1 fit, 30 °C).
Procedure: as §1

| Binder | Kd [nM] | koff [s⁻¹] | kon [M⁻¹ s⁻¹] |
| --- | --- | --- | --- |
| B8 | 1.84 | 9.45e-05 | 51500 |
| B9 | 3.11 | 0.000157 | 50400 |
| B10 | 6.07 | 0.00017 | 28000 |
| B11 | 3.07 | 0.000144 | 46900 |
| B12 | 6.16 | 0.000207 | 33700 |
| B13 | 1.72 | 0.000114 | 66000 |
| B14 | 2.31 | 0.000146 | 63300 |
| B15 | 9.9 | 0.000204 | 20900 |
| B27 | 1.19 | 7.76e-05 | 65100 |
